According to the RNAGym collection of RNA variant scans (doi:10.7554/elife.90254):

B1: LINE1-full (parent)
chain: UACGUAGGUGGUUUUCCCCUGAUAGUGCUAAGGGGGCCUGGAAGUUUGGACUGGGCAGAGCUCAACACAGCGUGGCAAAGUGGCUGUGGCUAGACUGCCUCUCUGGAUUCCUCGUCACUCAGCAGGGCAUCUCUGAGAGAAAUGCC

Variants of: B1
Assay: self-cleavage, relative activity (ratio to wild type); higher = more cleavage; in vitro, sequencing; the parent is a self-cleaving ribozyme

| Variant | self-cleavage |
| --- | --- |
| UACGUAGGUGGUUUUCCCCUGAUAGUGCUAAGGGGGCCUGGAAGUUUGGUCUGGGCAGAGCUCAACACAGCGUGGCAAAGUGGCUGUGGCUAGACUGCCUCUCUGGAUUCCUCGUCACUCAGCAGGGCAUCUCUGAGAGAAAAGCC [A50U U143A] | 1.47 |
| UACGUAGGUGGUUUUCCCCUGAUAGUGCUAAGGGGGCCUGGAAGUUUGGGCUGGGCAGAGCUCAACACAGCGUGGCAAAGUGGCUGUGGCUAGACUGCCUCUCUGGAUUCCUCGUCACUCAGCAGGGCAUCUCUGAGAGAAGUGCC [A50G A142G] | 0.9 |
| UACGUAGGUGGUUUUCCCCUGAUAGUGCUAAGGGGGCCUGGAAGUUUGGACUGGGCAGAGCUCAACACAGCGUGGCAAAAUGGCUGUGGCUAGACUGCCUCCCUGGAUUCCUCGUCACUCAGCAGGGCAUCUCUGAGAGAAAUGCC [G80A U102C] | 1.92 |
| UACGUAGGUGGUUUUCCCCUGAUAGUGCUAAGGGGGCCUGGAAGUUUGGACUGGGCAGAGCUCAACUCAGCGUGGCAAAGUGGCUGUGGCUAGACUGCCUCUCUGGAUUCCUCGUCACUCAGCAGGGCAUCUCUGAGGGAAAUGCC [A67U A138G] | 0.13 |
| UACGUAGGUGGUUUUCCCCUGAUAGUGCUAAGUGGGCCUGGAAGUUUGGACUGGGCAGAGCUCAACACAGCGUGGCAAAGUGGCUGUGGCUAGACUGCCUCUCUGGAUUCCUCGUCACUCAGCAGGGCAUCUCUGAGAGAGAUGCC [G33U A141G] | 1.32 |
| UAUGUAGGUGGUUUUCCCCUGAUAGUGCUAAGGGGGCCUGGAAGUUUGGACUGGGCAGAGCUCAACACAGCGUGGCAAAGUGGCUGUGGCUAGACUGCCUCUCUGGAUUCCUCGUCACCCAGCAGGGCAUCUCUGAGAGAAAUGCC [C3U U119C] | 1.14 |
| UACGUAGGUGGUUUUCCCCCGAUAGUGCUAAGGGGGCCUGGAAGUUUGGACUGGGCAGAGCUCAACACAGCGUGGCAAAGUGGCUGUGGCUAGACUGCCUCCCUGGAUUCCUCGUCACUCAGCAGGGCAUCUCUGAGAGAAAUGCC [U20C U102C] | 1.25 |
| UACGUAGGUGGUUUUCCCCUGAUAGUGCUAAGGGGGCCUGGAAGUUUGGACUGGGCAGAGCUCAACACAGCGUGGCAAAGUGGCUGUGGCUAGACUGCCUCUCUGGAUUCCUCGCCACUCAGAAGGGCAUCUCUGAGAGAAAUGCC [U115C C123A] | 1.49 |
| UACGUAGGUGGUUUUCCCCCGAUAGUGCUAAGGGGGCCUGGAAGUUUGGACUGGGCAGAGCUCAACACAGCGUGGCAAAGUGGCUGUGGCUAGACUGCCUCUCUGGAUUCCUCGUCACUCAGCAGGGCAUCGCUGAGAGAAAUGCC [U20C U132G] | 0.46 |
| UACGUAGGUGGUUCUCCCCUGGUAGUGCUAAGGGGGCCUGGAAGUUUGGACUGGGCAGAGCUCAACACAGCGUGGCAAAGUGGCUGUGGCUAGACUGCCUCUCUGGAUUCCUCGUCACUCAGCAGGGCAUCUCUGAGAGAAAUGCC [U14C A22G] | 0.99 |
| UACGUAGGUGGUUUUCCCCUGAUAGUGCUAAGGGGGCCUGGAAGUUUGGACUGGGCAGAGCUCAACACAGCGUGGCAAAGUGGCUGUGGCUAGACUGCCUCUCUGGAUUCCUCGUCACUCAGCAGGGCCUCUCCGAGAGAAAUGCC [A129C U134C] | 1.54 |
| UACGUAGGUGGUUUUCCCCUGAUAGUGCUAAGGGGGGCUGGAAGAUUGGACUGGGCAGAGCUCAACACAGCGUGGCAAAGUGGCUGUGGCUAGACUGCCUCUCUGGAUUCCUCGUCACUCAGCAGGGCAUCUCUGAGAGAAAUGCC [C37G U45A] | 0.85 |
| UACGCAGGUGGUUUUCCCCUGAUAGUGCUAAGGGGGCCUGGAAGUUUGGACUGGGCAGAGCUCAACACAGCGUGGCAAAGUGGCCGUGGCUAGACUGCCUCUCUGGAUUCCUCGUCACUCAGCAGGGCAUCUCUGAGAGAAAUGCC [U5C U85C] | 0.27 |
| UACGUAGGUGGUCUUCCCCUGAUAGUGCUAAGGGGGCCUGGAAGAUUGGACUGGGCAGAGCUCAACACAGCGUGGCAAAGUGGCUGUGGCUAGACUGCCUCUCUGGAUUCCUCGUCACUCAGCAGGGCAUCUCUGAGAGAAAUGCC [U13C U45A] | 0.76 |
| UACGUAGGUGGUUUUCCCCUGAUAGUGCUAAGGGGGCCUGGAAGUUUGGACUGGGCAGAGCUCAACACAGCGUGGCAAAGUGGCUGUGGCUAGACUGCAUCUCUGGAUUCCUCGUCACUCAGCAGGGCAUCUCUGAGAGAAACGCC [C99A U143C] | 1.03 |
| UGCGUAGGUGGUUUUCCCCUGAUAGUGCUAAGGGGGCCUGGAAGUUUGGACUGGGCAGAGCUCAACACAGGGUGGCAAAGUGGCUGUGGCUAGACUGCCUCUCUGGAUUCCUCGUCACUCAGCAGGGCAUCUCUGAGAGAAAUGCC [A2G C71G] | 0.42 |
| UACGUAGGUGGUUUUCCCCUGAUAGUGCUAAGGGGGCCAGGAAGUUUGGACUGGGCAGAGCUCAACACAGCGUGGCAAAGUGGCUGUGGCUAGACUGCCUCUUUGGAUUCCUCGUCACUCAGCAGGGCAUCUCUGAGAGAAAUGCC [U39A C103U] | 1.74 |
| UACGUAGGUGGUUUUCCCCUGAUAGUGCUAAGGGGGCCUGGAAGUUUGGACUGGGCAGAGCUCAACACAGCGCGGCAAAGUGGCUGUGGCUAGACUGCCUCUCUGGAUUCCUUGUCACUCAGCAGGGCAUCUCUGAGAGAAAUGCC [U73C C113U] | 1.85 |
| UACGUAGGUGGUUUUCCCCUGAUAGUGCUAAGGGGGCCUGGAAGUUUGGACUGGGCAGAGCUCAACACCGCGUGGCAAAGUGGCUGUGGCUAGACUGCCUCUCUGGAUUCCUCGUCACUCAGCAGGGCAUCCCUGAGAGAAAUGCC [A69C U132C] | 0 |
| UACGUAGGUGGUUUUCCCCUGAUAGUGCUAAGGGGGCCUGGAAGUUCGGACCGGGCAGAGCUCAACACAGCGUGGCAAAGUGGCUGUGGCUAGACUGCCUCUCUGGAUUCCUCGUCACUCAGCAGGGCAUCUCUGAGAGAAAUGCC [U47C U52C] | 1.18 |
